Source: patent US20210380679A1 (INHIBRX BIOSCIENCES, published 2021)

Legend:
[1] = biological target: T1, human DLL3 (Delta-like ligand 3) (human, UniProt Q9NYJ7 27-618); assay: flow cytometry, sdAb-Fc titrated on SHP-77 cells (DLL3 positive), APC anti-human Fc secondary
T1 construct: endogenous on SHP-77 cells; also called cell-surface DLL3
T1 sequence: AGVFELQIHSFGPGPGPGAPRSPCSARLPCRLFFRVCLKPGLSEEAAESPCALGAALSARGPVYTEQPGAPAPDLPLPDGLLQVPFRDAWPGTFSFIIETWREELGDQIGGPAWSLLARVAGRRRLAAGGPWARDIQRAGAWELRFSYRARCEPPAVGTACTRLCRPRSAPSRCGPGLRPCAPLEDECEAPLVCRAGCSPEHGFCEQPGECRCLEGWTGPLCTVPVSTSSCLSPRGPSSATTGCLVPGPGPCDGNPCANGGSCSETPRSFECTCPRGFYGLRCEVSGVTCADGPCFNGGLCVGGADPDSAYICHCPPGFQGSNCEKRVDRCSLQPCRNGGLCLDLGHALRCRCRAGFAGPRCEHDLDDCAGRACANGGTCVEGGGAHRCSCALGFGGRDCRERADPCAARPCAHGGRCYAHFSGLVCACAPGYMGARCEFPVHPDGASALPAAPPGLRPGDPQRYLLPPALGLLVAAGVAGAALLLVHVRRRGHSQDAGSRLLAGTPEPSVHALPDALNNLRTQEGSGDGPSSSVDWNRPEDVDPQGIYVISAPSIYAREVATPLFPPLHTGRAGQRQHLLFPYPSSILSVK
Procedure: (§1) Specificity and relative affinity were assessed for purified sdAb-Fcs on DLL3-expressing cells. […] A titration series of the fusion protein was incubated with the DLL3-expressing cell lines (approximately 2.5×10⁴ to 5×10⁴ cells/well) for 30 minutes at 4 degrees Celsius in FACS Buffer (PBS 1% BSA, 0.1% NaN₃ pH 7.4) in 96-well plates. Following three wash steps in FACS buffer, an APC-conjugated anti-human Fcγ specific secondary antibody (Jackson ImmunoResearch) was added and incubated for 30 minutes at 4 degrees Celsius. Following three additional wash steps in FACS buffer bound antibody was detected via flow cytometry (IQue Intellicyte).

[2] = biological target: T1, human DLL3 (Delta-like ligand 3); assay: flow cytometry, sdAb-Fc titrated on 293FS cells transfected with DLL3 (panel title DLL3-FL), APC anti-human Fc secondary
Procedure: FIGS. 2A-L set forth a series of graphs depicting the ability of sdAb and humanized variants thereof targeting DLL3 to bind cell surface DLL3.
as §1

[3] = biological target: T1, human DLL3 (Delta-like ligand 3); assay: flow cytometry, SHP-77 cells

B1: 3B4 (Fc fusion)
VHH: QVQLQQSGGGLVQAGGSLRLSCAASGSDFSINAMGWYRQGELVAGFTGDGNPIYADSVKGRFTISRGNAENTVSLQMNSLKPEDTAVYYCAADVKIGGDYEWYWGQGTQVTVKP
notes: tested as VHH-human Fc; Fc not specified
EC50 (read off the curve) [1]: ~0.06 nM

B2: 6B4 (Fc fusion)
VHH: QVTLRESGGGLVQAGGSLRLSCGASEITLSDKTVGWYRQAPGKQRVLVAVISNVDSTNYAHSVKGRFTISRDNAKNTVYLQMNSLKPEDTAVYYCYARDFEAEYWGQGTLVTVKP
notes: as for B1
binding result [1]: binds

B3: L6F1 (Fc fusion)
VHH: QVQLVQSGGGLVQAGGSLRLSCGASEIIFSDKTVGWYRQAPGKQRVLVAVISNVDSTNYAQSVKGRFTISRDNAKNTVYLQMNSLKPEDTAVYYCYARDFESEYWGRGTQVTVKP
notes: as for B1
binding result [1]: binds

B4: hz5A8v5 (Fc fusion)
VHH: EVQLVESGGGEVQPGGSLRLSCAASGSIFSINAMGWYRQAPGKQRELVAVVSSDGRTTVAPSVKGRFTISRDNAKNTVYLQMSSLRAEDTGVYYCGVREWYSDSDWRDYEGQGTLVTVKP
notes: as for B1
EC50 (read off the curve) [2]: ~3 nM

B5: hz5A8v12 (Fc fusion)
VHH: EVQLVESGGGEVQAGGSLRLSCAASGSIFSINAMGWYRQAPGKQRELVAVVSSDGRTTVAPSVKGRFTISRDNAKNTVYLQMSSLRAEDTAVYYCGVREWYSDSDWRDYEGQGTLVTVKP
notes: as for B1
binding result [3]: binds

B6: hz5A8v10 (Fc fusion)
VHH: EVQLVESGGGEVQPGGSLRLSCAASGSIFSINAMGWYRQAPGKQRELVAVVSSDARTTVAPSVKGRFTISRDNAKNTVYLQMSSLRAEDTAVYYCGVREWYSDADWRDYEGQGTLVTVKP
notes: as for B1
binding result [3]: binds

B7: hz5A8v11 (Fc fusion)
VHH: EVQLVESGGGEVQPGGSLRLSCAASGSIFSINAMGWYRQAPGKQREWVAVVSSDGRTTVAPSVKGRFTISRDNAKNTVYLQMSSLRAEDTAVYYCGVREWYSDSDWRDYEGQGTLVTVKP
notes: as for B1
binding result [3]: binds

B8: hz8E7v8 (Fc fusion)
VHH: EVQLVESGGGEVQPGGSLRLSCGPSEIITSDKSVGWYRQAPGKQRNLVAGISNVGSTNYAQSVKGRFTISRDNAKNTLYLQMSSLRAEDTAVYYCYARDFENEYWGQGTLVTVKP
notes: as for B1
binding result [2]: binds

B9: L8E7 (Fc fusion)
VHH: EVQLQESGGGLVQAGGSLRLSCGPSEIITSDKSVGWWRQAPGKQRNLVAGISNVGSTNYAQSVKGRFTISRDNAKNTLFLQMNSLKPEDTAVYYCYARDFENEYWGRGTQVTVKP
notes: as for B1
binding result [1]: binds

B10: hz8E7v11 (Fc fusion)
VHH: EVQLVESGGGEVQPGGSLRLSCGPSEIITSDKSVGWFRQAPGKQRNLVAGISNVGSTNYAQSVKGRFTISRDNAKNTLYLQMSSLRAEDTAVYYCYARDFENEYWGQGTLVTVKP
notes: as for B1
binding result [2]: binds

B11: hz8E7v9 (Fc fusion)
VHH: EVQLVESGGGEVQPGGSLRLSCGPSEIITSDKSVGWVRQAPGKQRNLVAGISNVGSTNYAQSVKGRFTISRDNAKNTLYLQMSSLRAEDTAVYYCYARDFENEYWGQGTLVTVKP
notes: as for B1
binding result [2]: binds

B12: hz8E7v16 (Fc fusion)
VHH: EVQLVESGGGEVQPGGSLRLSCGPSEIITSDKSMGWVRQAPGKQRNLVAGISNVGSTNYAQSVKGRFTISRDNAKNTVYLQMSSLRAEDTAVYYCYARDFENEYWGQGTLVTVKP
notes: as for B1
binding result [3]: binds

B13: hz8E7v10 (Fc fusion)
VHH: EVQLVESGGGEVQPGGSLRLSCGPSEIITSDKSVGWWRQAPGKQRELVAGISNVGSTNYAQSVKGRFTISRDNAKNTLYLQMSSLRAEDTAVYYCYARDFENEYWGQGTLVTVKP
notes: as for B1
binding result [2]: binds

B14: hz8E7v15 (Fc fusion)
VHH: EVQLVESGGGEVQPGGSLRLSCGPSEIITSDKSMGWVRQAPGKQRNLVAGISNVGSTNYAQSVKGRFTISRDNAKNTLYLQMSSLRAEDTAVYYCYARDFENEYWGQGTLVTVKP
notes: as for B1
binding result [3]: binds

B15: hz8E7v6 (Fc fusion)
VHH: EVQLVESGGGEVQPGGSLRLSCGPSEIIFSDKSVGWWRQAPGKQRNLVAGISNVGSTNYAQSVKGRFTISRDNAKNTLYLQMSSLRAEDTAVYYCYARDFENEYWGQGTLVTVKP
notes: as for B1
binding result [2]: binds

B16: hz8E7v5 (Fc fusion)
VHH: EVQLVESGGGEVQPGGSLRLSCGPSEIITSDKSVGWWRQAPGKQRNLVAGISNVGSTNYAQSVKGRFTISRDNAKNTVYLQMSSLRAEDTAVYYCYARDFENEYWGQGTLVTVKP
notes: as for B1
binding result [2]: binds

B17: 3B12 (Fc fusion)
VHH: QVQLQESGGGLVQSGGSLRLSCAASGFSLDDYTIGWFRQAPGKEREGVSCISSSGGSTYYADSVKGRFTISRDNAENTVYLQMNSLKPEDTAVYYCATYCPVTIADELGFDYWGQGTLVTVKP
notes: as for B1
binding result [1]: binds

B18: L5A8 (Fc fusion)
VHH: QVQLVQSGGGLVQAGESLRLSCAASGSIFSINAMGWYRQVLGKQRELVAVVSSDGRTTVAPSVKGRFTISRDNAKNTVSLQMNSLKPEDTGVYYCGVREWYSDSDWRDYEGQGTQVTVKP
notes: as for B1
EC50 (read off the curve) [2]: ~10 nM

B19: L10D9 (Fc fusion)
VHH: EVQLVQSGGGLVQAGGSLRLSCAASGSILSINAMGWYRQPPGKQREMVAGFTGDGNTIYADSVKGRFTISRDNAKNTVYLQMNSLKPEDTAVYYCAADVQLFSRDYEFYWGQGTQVTVKP
notes: tested as VHH-human Fc
binding result [1]: binds
